Reference: paper PMC6774274, “Engineering a Seven Enzyme Biotransformation using Mathematical Modelling and Characterized Enzyme Parts” (Chemcatchem, 2019)

What was measured:
mpCAR [1] = target: T1, mpCAR (Mycolicibacterium phlei, UniProt A0A5N5VEC4); test: inhibition of CAR reaction; format: biochemical; details: read-out: K I-ADP
T1 construct: gene car; N-terminal 6xHis tag, pNIC28-Bsa4, E. coli BL21(DE3); co-expressed with Bacillus subtilis phosphopantetheine transferase; gene from genomic DNA
T1 sequence (A0A5N5VEC4 1-1162): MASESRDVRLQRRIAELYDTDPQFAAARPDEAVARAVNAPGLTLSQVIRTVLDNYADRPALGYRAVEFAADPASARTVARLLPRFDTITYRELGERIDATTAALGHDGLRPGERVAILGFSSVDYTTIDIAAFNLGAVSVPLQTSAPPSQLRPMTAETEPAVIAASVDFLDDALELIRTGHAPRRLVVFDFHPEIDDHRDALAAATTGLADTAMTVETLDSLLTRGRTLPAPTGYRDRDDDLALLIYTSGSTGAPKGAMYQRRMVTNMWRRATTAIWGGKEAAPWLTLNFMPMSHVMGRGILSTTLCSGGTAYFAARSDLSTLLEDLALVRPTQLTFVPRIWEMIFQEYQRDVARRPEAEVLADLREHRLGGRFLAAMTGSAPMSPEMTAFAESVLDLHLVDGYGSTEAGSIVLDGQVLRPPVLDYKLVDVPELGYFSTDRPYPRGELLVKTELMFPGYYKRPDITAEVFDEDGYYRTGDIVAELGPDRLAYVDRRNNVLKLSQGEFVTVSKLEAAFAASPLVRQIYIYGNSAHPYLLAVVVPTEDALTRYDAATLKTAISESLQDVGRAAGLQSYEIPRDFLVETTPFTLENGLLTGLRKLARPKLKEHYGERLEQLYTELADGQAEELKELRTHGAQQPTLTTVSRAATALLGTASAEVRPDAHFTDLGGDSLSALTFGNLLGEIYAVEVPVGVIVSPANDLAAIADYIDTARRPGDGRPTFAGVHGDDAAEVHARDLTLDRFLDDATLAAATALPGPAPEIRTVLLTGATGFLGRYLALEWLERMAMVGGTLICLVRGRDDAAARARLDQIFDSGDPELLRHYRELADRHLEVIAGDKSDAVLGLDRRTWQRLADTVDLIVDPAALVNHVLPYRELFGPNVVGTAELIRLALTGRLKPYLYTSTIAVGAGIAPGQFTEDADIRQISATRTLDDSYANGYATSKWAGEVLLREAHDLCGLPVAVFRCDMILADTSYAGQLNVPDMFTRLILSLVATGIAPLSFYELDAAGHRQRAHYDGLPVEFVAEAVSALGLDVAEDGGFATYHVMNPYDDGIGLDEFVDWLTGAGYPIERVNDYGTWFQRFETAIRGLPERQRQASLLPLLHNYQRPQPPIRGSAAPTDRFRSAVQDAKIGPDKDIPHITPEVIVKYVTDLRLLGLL
Source text: inhibition of CAR reaction on mpCAR

mpCAR [2] = target: T1, mpCAR; test: NADPH oxidation at […] nm, two-substrate fit; format: biochemical; details: kinetic constant for ATP in the ordered rate equation, not an inhibition constant; otherwise as row above
purified protein [3] = substrate: Cc1ccc(C(=O)O)cc1; test: purified protein; details: 0.25 mM NADPH, 10 mM MgCl2, varied ATP, 100 mM Tris-HCl pH 7.5, 30 °C
purified protein [4] = substrate: NC(=O)C1=CN([C@@H]2O[C@H](COP(=O)(O)OP(=O)(O)OC[C@H]3O[C@@H](n4cnc5c(N)ncnc54)[C@H](OP(=O)(O)O)[C@@H]3O)[C@@H](O)[C@H]2O)C=CC1; test: purified protein; format: biochemical, Mycolicibacterium phlei; details: 10 mM MgCl2, 1 mM ATP, 10 mM 4-toluic acid, 100 mM Tris-HCl pH 7.5, 30 °C, varied: cofactor
purified protein [5] = substrate: Nc1ncnc2c1ncn2[C@@H]1O[C@H](COP(=O)(O)OP(=O)(O)OP(=O)(O)O)[C@@H](O)[C@H]1O; test: purified protein; format: biochemical, Mycolicibacterium phlei; details: 0.25 mM NADPH, 10 mM MgCl2, varied 4-toluic acid, 100 mM Tris-HCl pH 7.5, 30 °C
[6] = substrate: Nc1ncnc2c1ncn2[C@@H]1O[C@H](COP(=O)(O)O)[C@@H](O)[C@H]1O; test: ADP-Glo kinase assay, luminescence; format: biochemical, Thermodesulfobium narugense; details: polyphosphate co-substrate (12.5 mM PO3 units), 20 or 40 mM MgCl2, 100 mM Tris-HCl pH 7.5, 15 min
Source text: ADP-Glo kinase assay, luminescence on tnPAP

Which Ki (mpCAR [1]) does the source give for `Nc1ncnc2c1ncn2[C@@H]1O[C@H](COP(=O)(O)OP(=O)(O)O)[C@@H](O)[C@H]1O` [ADP] here?
Its Ki is 11 mM.

Which “K I-ATP” value (mpCAR [2]) does the source give for `Nc1ncnc2c1ncn2[C@@H]1O[C@H](COP(=O)(O)OP(=O)(O)OP(=O)(O)O)[C@@H](O)[C@H]1O` [ATP] here?
The value was 0.04 ± 0.034 mM.

B1: mpCAR (Mycolicibacterium phlei DSM 43239 = CCUG 21000) (protein)
chain: MASESRDVRLQRRIAELYDTDPQFAAARPDEAVARAVNAPGLTLSQVIRTVLDNYADRPALGYRAVEFAADPASARTVARLLPRFDTITYRELGERIDATTAALGHDGLRPGERVAILGFSSVDYTTIDIAAFNLGAVSVPLQTSAPPSQLRPMTAETEPAVIAASVDFLDDALELIRTGHAPRRLVVFDFHPEIDDHRDALAAATTGLADTAMTVETLDSLLTRGRTLPAPTGYRDRDDDLALLIYTSGSTGAPKGAMYQRRMVTNMWRRATTAIWGGKEAAPWLTLNFMPMSHVMGRGILSTTLCSGGTAYFAARSDLSTLLEDLALVRPTQLTFVPRIWEMIFQEYQRDVARRPEAEVLADLREHRLGGRFLAAMTGSAPMSPEMTAFAESVLDLHLVDGYGSTEAGSIVLDGQVLRPPVLDYKLVDVPELGYFSTDRPYPRGELLVKTELMFPGYYKRPDITAEVFDEDGYYRTGDIVAELGPDRLAYVDRRNNVLKLSQGEFVTVSKLEAAFAASPLVRQIYIYGNSAHPYLLAVVVPTEDALTRYDAATLKTAISESLQDVGRAAGLQSYEIPRDFLVETTPFTLENGLLTGLRKLARPKLKEHYGERLEQLYTELADGQAEELKELRTHGAQQPTLTTVSRAATALLGTASAEVRPDAHFTDLGGDSLSALTFGNLLGEIYAVEVPVGVIVSPANDLAAIADYIDTARRPGDGRPTFAGVHGDDAAEVHARDLTLDRFLDDATLAAATALPGPAPEIRTVLLTGATGFLGRYLALEWLERMAMVGGTLICLVRGRDDAAARARLDQIFDSGDPELLRHYRELADRHLEVIAGDKSDAVLGLDRRTWQRLADTVDLIVDPAALVNHVLPYRELFGPNVVGTAELIRLALTGRLKPYLYTSTIAVGAGIAPGQFTEDADIRQISATRTLDDSYANGYATSKWAGEVLLREAHDLCGLPVAVFRCDMILADTSYAGQLNVPDMFTRLILSLVATGIAPLSFYELDAAGHRQRAHYDGLPVEFVAEAVSALGLDVAEDGGFATYHVMNPYDDGIGLDEFVDWLTGAGYPIERVNDYGTWFQRFETAIRGLPERQRQASLLPLLHNYQRPQPPIRGSAAPTDRFRSAVQDAKIGPDKDIPHITPEVIVKYVTDLRLLGLL
notes: N-terminal 6xHis tag, pNIC28-Bsa4, E. coli BL21(DE3); co-expressed with Bacillus subtilis phosphopantetheine transferase; gene from genomic DNA
For B1, which Km (purified protein [3]) is on record?
The Km was 1,500±320 μM.

What about the kcat (purified protein [3]) of the same molecule?
The kcat was 3.33 ± 0.333 s⁻¹.

And the Km (purified protein [4])?
The Km was 30 ± 8 µM.

What about the kcat (purified protein [4]) of the same molecule?
The kcat was 3.33 ± 0.333 s⁻¹.

And the Km (purified protein [5])?
Its Km is 100 ± 28 µM.

And the kcat (purified protein [5])?
The kcat was 3.33 ± 0.333 s⁻¹.

B2: tnPAP (Thermodesulfobium narugense DSM 14796) (protein)
chain: MLEKVDLNKIMDREDYKKEFDNLSIELGALQREARDLKLPIIIVFDGFEAAGKGTLINKLMLPLDPRGYDVIKRFECPSETDNRPYFYKFWKTIPKRGDISIVNESWYKALLSDRVLKKTSPEIVEYLFDEILSFEGQLVADGYLIVKFFLYISEEEQKDRLKKLKKNKDESWRVTDDVLKLHKKYKKFLDAAETVFEKTDTAFAPWTIIEATDKRYATIKIFKTLIEAIKFKIKAIKEKEELPSFENFYPVNELSSLSKIDLNKSLTYEEYIEKLHPLQREIHDLQYRLWKERVPVIVAFEGWDAAGKGGSIKRLTEAMDPRGYTVIPIGAPNEYELAHHYLWRFWQNVPEKGNIAIFDRTWYGRVLVERVEKLCKDFDWQRAYGEIKQMEKQFTNFGIVLLKFWLHIDKKTQLERFEEREKNPFKHWKITEDDWRNRSKWDDYLPAVEEMLIRTSTAEAPWNIIEANDKYFARIKVLETFVNKIKEKLN
notes: N-terminal 6xHis tag, codon-optimised, pNIC28-Bsa4, E. coli
What does the source list for B2?
Km [6]: 280 ± 240 µM; kcat [6]: 4.17 ± 2.08 s⁻¹
